From PMC9951308
Starred links: 1 amine or outer side, 2 acyl side, 3 side chain; linkers in the order of their positions; H or OH if unused. Positions of bridges follow the written chain, without caps; N, C: chain ends. Residues, ends and D or L forms follow the SMILES beside them. TBMB = c1c(C[*:1])cc(C[*:3])cc1C[*:2]; mXylylene = c1cc(C[*:1])cc(C[*:2])c1

Test: circular dichroism
Conditions: PBS 10 mM; pH 7.4; 25 °C; 10 uM

| Compound | helicity [%] |
| --- | --- |
| CC(=O)N[C@@H](C)C(=O)N[C@@H](C)C(=O)N[C@@H](C)C(=O)N[C@@H](C)C(=O)N[C@@H](CCCCN)C(=O)N[C@@H](C)C(=O)N[C@@H](C)C(=O)N[C@@H](C)C(=O)N[C@@H](C)C(=O)N[C@@H](CCCCN)C(=O)N[C@@H](Cc1c[nH]c2ccccc12)C(=O)N[C@H]1CSCc2cc3cc(c2)CSC[C@H](NC(=O)[C@H](C)NC(=O)[C@H](C)NC1=O)C(=O)N[C@@H](C)C(=O)N[C@H](C(N)=O)CSC3 (Ac-AAAAKAAAAKWCAACAC-NH2; linker 12-15-17 via TBMB) | 33 |
| CC(=O)N[C@@H](C)C(=O)N[C@@H](C)C(=O)N[C@@H](C)C(=O)N[C@@H](C)C(=O)N[C@@H](CCCCN)C(=O)N[C@@H](C)C(=O)N[C@@H](C)C(=O)N[C@@H](C)C(=O)N[C@@H](C)C(=O)N[C@@H](CCCCN)C(=O)N[C@@H](Cc1c[nH]c2ccccc12)C(=O)N[C@H]1CSCc2cc3cc(c2)CSC[C@H](NC(=O)[C@H](C)NC(=O)[C@H](C)NC1=O)C(=O)NCC(=O)N[C@H](C(N)=O)CSC3 (Ac-AAAAKAAAAKWCAACGC-NH2; linker 12-15-17 via TBMB) | 65 |
| CC(=O)N[C@@H](C)C(=O)N[C@@H](C)C(=O)N[C@@H](C)C(=O)N[C@@H](C)C(=O)N[C@@H](CCCCN)C(=O)N[C@@H](Cc1c[nH]c2ccccc12)C(=O)N[C@H]1CSCc2cccc(c2)CSC[C@@H](C(N)=O)NC(=O)CNC(=O)[C@H](C)NC(=O)[C@H](C)NC(=O)[C@H](C)NC1=O (Ac-AAAAKWCAAAGC-NH2; linker 7-12 via mXylylene) | 34 |
| CC(=O)N[C@@H](C)C(=O)N[C@@H](C)C(=O)N[C@@H](C)C(=O)N[C@@H](C)C(=O)N[C@@H](CCCCN)C(=O)N[C@@H](Cc1c[nH]c2ccccc12)C(=O)N[C@H]1CSCc2cccc(c2)CSC[C@@H](C(=O)NCC(=O)N[C@@H](C)C(N)=O)NC(=O)[C@H](C)NC(=O)[C@H](C)NC1=O (Ac-AAAAKWCAACGA-NH2; linker 7-10 via mXylylene) | 33 |
| CC(=O)N[C@@H](C)C(=O)N[C@@H](C)C(=O)N[C@@H](C)C(=O)N[C@@H](C)C(=O)N[C@@H](CCCCN)C(=O)N[C@@H](Cc1c[nH]c2ccccc12)C(=O)N[C@H]1CSCc2cc3cc(c2)CSC[C@H](NC(=O)[C@H](C)NC(=O)[C@H](C)NC1=O)C(=O)NCC(=O)N[C@H](C(N)=O)CSC3 (Ac-AAAAKWCAACGC-NH2; linker 7-10-12 via TBMB) | 59 |
| CC[C@H](C)[C@@H]1NC(=O)[C@@H](NC(=O)[C@H](C)NC(=O)[C@H](CC(C)C)NC(=O)[C@H](CCC(N)=O)NC(=O)[C@H](CCCNC(=N)N)NC(=O)[C@H](C)NC(=O)[C@@H](NC(=O)[C@H](CCC(N)=O)NC(C)=O)C(C)C)CSCc2cc3cc(c2)CSC[C@H](NC(=O)[C@H](Cc2ccc(O)cc2)NC1=O)C(=O)NCC(=O)N[C@H](C(N)=O)CSC3 (Ac-QVARQLACIYCGC-NH2; linker 8-11-13 via TBMB) | 38 |
| CC[C@H](C)[C@H](NC(=O)[C@H](CCCNC(=N)N)NC(C)=O)C(=O)N[C@@H](C)C(=O)N[C@@H](CCCNC(=N)N)C(=O)N[C@@H](CC(C)C)C(=O)N[C@@H](CCC(=O)O)C(=O)N[C@@H](CCC(=O)O)C(=O)N[C@H]1CSCc2cc3cc(c2)CSC[C@H](NC(=O)[C@H](CCCCN)NC(=O)[C@H](Cc2ccc(O)cc2)NC1=O)C(=O)NCC(=O)N[C@H](C(N)=O)CSC3 (Ac-RIARLEECYKCGC-NH2; linker 8-11-13 via TBMB) | 48 |
| Ac-AAAAKAAAAKAAAAKAW-NH2 | 48 |
| Ac-AAAAKAAAAKAW-NH2 | 17 |
| Ac-QVARQLAEIY-NH2 | 8 |
| Ac-RIARLEEKYK-NH2 | 17 |
| Ac-WAAAKAAAAKALAAIGV-NH2 | 37 |
| Ac-WAAAKAAAAKALAALGF-NH2 | 38 |
| Ac-WAAAKAAAAKALAALGI-NH2 | 52 |
| Ac-WAAAKAAAAKALAALGL-NH2 | 54 |
| Ac-WAAAKAAAAKALAALGV-NH2 | 44 |
| Ac-WAAAKAAAAKALAALGW-NH2 | 44 |
| Ac-WAAAKAAAAKALAALGY-NH2 | 45 |
